According to patent US20030060605A1 (LA JOLLA INSTITUTE FOR ALLERGY AND IMMUNOLOGY, published 2003):
Residue numbers refer to the chain shown, from its start.

B1: soluble HSV gD-1 (glycoprotein D of HSV-1) (ligand)
chain: KYALVDASLKMADPNRFRGKDLPVLDQLTDPPGVRRVYHIQAGLPDPFQPPSLPITVYYAVLERACRSVLLNAPSEAPQIVRGASEDVRKQPYNLTIAWFRMGGNCAIPITVMEYTECSYNKSLGACPIRTQPRWNYYDSFSAVSEDNLGFLMHAPAFETAGTYLRLVKINDWTEITQFILEHRAKGSCKYALPLRIPPSACLSPQAYQQGVTVDSIGMLPRFIPENQRTVAVYSLKIAGWHGPKAPYTSTLLPPELSETPNATQPELAPEDPEDSALLEDPVGTVAPQIPPNWHIPSIQDAATPY
B2: HVEM:Fc fusion protein (extracellular region of HVEM, 1 to K184, fused to the Fc of human IgG1) (Fc fusion, UniProt Q92956 39-184, looked up)
chain: LPSCKEDEYPVGSECCPKCSPGYRVKEACGELTGTVCEPCPPGTYIAHLNGLSKCLQCQMCDPAMGLRASRNCSRTENAVCGCSPGHFCIVQDGDHCAACRAYATSSPGQRVQKGGTESQDTLCQNCPPGTFSPNGTLEECQHQTK
notes: range 1-184; Made in the baculovirus vector pVL1392; Residues 1-184 include the signal peptide; also called huHVEM:Fc; hu HVEM:Fc; not shown: Fc of human IgG1
B3: Fas:Fc (Fc fusion, UniProt P25445 26-173, looked up)
chain: QVTDINSKGLELRKTVTTVETQNLEGLHHDGQFCHKPCPPGERKARDCTVNGDEPDCVPCQEGKEYTDKAHFSSKCRRCRLCDEGHGLEVEINCTRTQNTKCRCKPNFFCNSTVCEHCDPCTKCEHGIIKECTLTSNTKCKEEGSRSN
notes: not shown: Fc region of human IgG1
B4: recombinant soluble LTα1β2 (ligand)
chain 1: LPGVGLTPSAAQTARQHPKMHLAHSTLKPAAHLIGDPSKQNSLLWRANTDRAFLQDGFSLSNNSLLVPTSGIYFVYSQVVFSGKAYSPKATSSPLYLAHEVQLFSSQYPFHVPLLSSQKMVYPGLQEPWLHSMYHGAAFQLTQGDQLSTHTDGIPHLVLSPSTVFFGAFAL
chain 2: QDQGGLVTETADPGAQAQQGLGFQKLPEEEPETDLSPGLPAAHLIGAPLKGQGLGWETTKEQAFLTSGTQFSDAEGLALPQDGLYYLYCLVGYRGRAPPGGGDPQGRSVTLRSSLYRAGGAYGPGTPELLLEGAETVTPVLDPARRQGYGPLWYTSVGFGGLVQLRRGERVYVNISHPDMVDFARGKTFFGAVMVG
B5: LTα homotrimer (ligand, UniProt P01374 35-205, looked up)
chain: B4 chain 1
notes: One entry for the recombinant protein and for the native LTα (23-25 kDa, and the 23 kDa precursor) of the human II-23.D7 cells; also called recombinant LTα; secreted LTα
B6: gD-1 (Δ290-299t), mutant of soluble HSV gD-1 (ligand)
chain: KYALVDASLKMADPNRFRGKDLPVLDQLTDPPGVRRVYHIQAGLPDPFQPPSLPITVYYAVLERACRSVLLNAPSEAPQIVRGASEDVRKQPYNLTIAWFRMGGNCAIPITVMEYTECSYNKSLGACPIRTQPRWNYYDSFSAVSEDNLGFLMHAPAFETAGTYLRLVKINDWTEITQFILEHRAKGSCKYALPLRIPPSACLSPQAYQQGVTVDSIGMLPRFIPENQRTVAVYSLKIAGWHGPKAPYTSTLLPPELSETPNATQPELAPEDPEDSALLEDPVGTVAPQQDAATPY

Legend:
[1] = target: mouse HVEM:Fc (extracellular region of mouse HVEM, Met1 to Ser205, fused to the Fc of human IgG1) (mouse; human) (UniProt Q80WM9); assay: ELISA, receptor:Fc coated as capture (150 ng/well), FLAG-tagged ligand, M2 anti-FLAG and goat anti-mouse HRP, OD 415 [panel mouse HVEM:Fc]
[2] = target: LTβR on the surface of human cells (HT29, NHDF) (human) (UniProt P36941); assay: cell-based or functional assay
human LTβR:Fc (human) [3] = target: human LTβR:Fc (human) (UniProt P36941); assay: SPR (BIAcore 1000), receptor:Fc amine-coupled to CM5, LIGHT mutant as analyte
[4] = target: HVEM:Fc fusion protein (extracellular region of HVEM, 1 to K184, fused to the Fc of human IgG1) (human) (UniProt Q92956); assay: as above
[5] = target: HVEM:Fc fusion protein (extracellular region of HVEM, 1 to K184, fused to the Fc of human IgG1) (human) (UniProt Q92956); assay: SPR (BIAcore 1000)
[6] = target: HVEM:Fc fusion protein (extracellular region of HVEM, 1 to K184, fused to the Fc of human IgG1) (human) (UniProt Q92956); assay: ELISA, receptor:Fc coated as capture (150 ng/well), FLAG-tagged ligand, M2 anti-FLAG and goat anti-mouse HRP, OD 415 [panel human HVEM:Fc]
[7] = target: p30 (LIGHT), the 30 kDa cell surface HVEM ligand of activated II-23.D7 T hybridoma cells and human T cells (human) (UniProt O43557); assay: competition flow cytometry: II-23.D7 cells activated with PMA and ionomycin, pre-incubated with the Fc protein, then HVEM:Fc-rabbit 2 µg/ml, goat anti-rabbit IgG-PE; competitor displaced: HVEM:rbFc [lower graph]
human LTβR:Fc (human) [8] = target: human LTβR:Fc (human) (UniProt P36941); assay: SPR (BIAcore 1000), receptor:Fc amine-coupled to CM5, LIGHT as analyte 100-500 nM
[9] = target: HVEM:Fc fusion protein (extracellular region of HVEM, 1 to K184, fused to the Fc of human IgG1) (human) (UniProt Q92956); assay: as above
human LTβR:Fc (human) [10] = target: human LTβR:Fc (human) (UniProt P36941); assay: ELISA, receptor:Fc coated as capture (150 ng/well), FLAG-tagged ligand, M2 anti-FLAG and goat anti-mouse HRP, OD 415 [panel Human LTβR:Fc]
[11] = target: mouse HVEM:Fc (extracellular region of mouse HVEM, Met1 to Ser205, fused to the Fc of human IgG1) (mouse; human) (UniProt Q80WM9); assay: ELISA, receptor:Fc as capture, M2 anti-FLAG detection
[12] = target: mouse LTβR:Fc (residues 1 to Met221 of the extracellular domain of mouse LTβR) (mouse) (UniProt P50284); assay: as above
[13] = target: B2; assay: competition flow cytometry: HVEM:Fc 2 µg/ml pre-incubated with the gD-1 protein 30 min at 4 C, then added to II-23.D7 cells activated with PMA and ionomycin (p30 on the cells) [lower graph]
[14] = target: T1, p30 (LIGHT), the 30 kDa cell surface HVEM ligand of activated II-23.D7 T hybridoma cells and human T cells (human, UniProt O43557 1-240); assay: flow cytometry, saturation binding on activated II-23.D7 cells; whole activated (PMA + ionomycin) II-23.D7 cells; apparent half-maximal binding by flow cytometry
T1 construct: whole, on cells; On the cell surface in flow cytometry; in NP40 detergent extracts in the precipitations
Procedure: II-23.D7 cells were activated for 4 hours at 37° C. with phorbol myristate acetate (PMA) (100 ng/ml), or PMA (100 ng/ml) and ionomycin (1 μg/ml). […] Stained cells were analyzed by flow cytometry (FACSCaliber, Becton-Dickenson). Receptor binding was determined by calculating the fluorescence intensity=(mean fluorescent channel) (% positive fluorescent events), where a positive event has a fluorescence value>98% of the value for normal IgG. Specific fluorescence intensity represents the fluorescence intensity after subtraction of the value for control IgG.

[15] = target: T2, LTβ (33 kDa) and LTα (23-25 kDa) complex from detergent extracts of PMA activated II-23.D7 cells (human, UniProt P01374 35-205; Q06643 1-244); assay: flow cytometry, II-23.D7 cells activated with PMA alone, goat anti-human IgG-PE; target taken as the surface LTα1β2 of these cells [upper histogram]
T2 construct: Native complex, in NP40 extract; also called LTα1β2 complex; surface LTα1β2
T2 sequence (looked up) 1: B4 chain 1
T2 sequence (looked up) 2: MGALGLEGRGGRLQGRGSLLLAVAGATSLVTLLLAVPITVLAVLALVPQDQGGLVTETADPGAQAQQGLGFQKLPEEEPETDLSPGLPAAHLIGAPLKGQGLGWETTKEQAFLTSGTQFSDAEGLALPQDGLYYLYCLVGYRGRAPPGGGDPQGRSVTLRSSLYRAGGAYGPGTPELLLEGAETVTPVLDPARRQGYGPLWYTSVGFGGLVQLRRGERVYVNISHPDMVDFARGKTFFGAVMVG

LTαTyr108Phe = target: T3, LTαTyr108Phe (UniProt P01374 35-205); assay: competition flow cytometry: HVEM:Fc pre-incubated with the ligand, then added to II-23.D7 cells activated with PMA and ionomycin, anti-huIgG-PE
T3 construct: also called LTαY108F; LTα (Y108F)
T3 sequence (looked up): B4 chain 1 with Y108F

[16] = target: T1, p30 (LIGHT), the 30 kDa cell surface …; assay: competition flow cytometry: II-23.D7 cells activated with PMA and ionomycin, pre-incubated with the Fc protein, then HVEM:Fc-rabbit 2 µg/ml, goat anti-rabbit IgG-PE [lower graph]
[17] = target: LTβR on the surface of human cells (HT29, NHDF) (human, UniProt P36941 31-435); assay: cell-based or functional assay
[18] = target: B2; assay: competition flow cytometry: HVEM:Fc pre-incubated with the ligand, then added to II-23.D7 cells activated with PMA and ionomycin (p30 on the cells), anti-huIgG-PE [lower graph]
[19] = target: B2; assay: competition flow cytometry: HVEM:Fc pre-incubated with the ligand 30 min at 4 C, then added to II-23.D7 cells activated with PMA and ionomycin (p30 on the cells), anti-huIgG-PE [lower graph]

T1 sequence (O43557 whole entry): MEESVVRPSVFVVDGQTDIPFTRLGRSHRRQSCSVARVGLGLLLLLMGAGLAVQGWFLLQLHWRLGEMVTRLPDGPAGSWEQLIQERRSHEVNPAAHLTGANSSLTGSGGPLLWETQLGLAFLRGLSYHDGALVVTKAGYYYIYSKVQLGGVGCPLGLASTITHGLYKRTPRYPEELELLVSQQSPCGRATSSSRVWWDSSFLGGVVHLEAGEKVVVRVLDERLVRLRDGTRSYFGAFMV
Chain of p30 (LIGHT), the 30 kDa cell surface HVEM ligand of activated II-23.D7 T hybridoma cells and human T cells (human) (O43557 whole entry): as above
Chain of mouse LTβR:Fc (residues 1 to Met221 of the extracellular domain of mouse LTβR) (mouse) (P50284 31-221): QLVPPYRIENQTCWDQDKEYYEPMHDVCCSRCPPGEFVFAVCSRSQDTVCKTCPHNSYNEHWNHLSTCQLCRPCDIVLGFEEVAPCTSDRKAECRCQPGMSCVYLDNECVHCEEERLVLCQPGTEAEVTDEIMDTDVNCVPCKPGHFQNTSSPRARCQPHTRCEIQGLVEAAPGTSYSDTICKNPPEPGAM

LIGHTt66-FLAG mutant Q117T (ligand)
EC50 (read off the curve) [1]: 0.9 nM | 50% cell death of HT29 cells (MTT, 72 h, with IFNγ) [2]: 10 µM | Kd (human LTβR:Fc (human) [3]): 1.5 nM | koff (human LTβR:Fc (human) [3]): 4.5e-05 s⁻¹ | Kd [4]: 0.3 nM | kon [4]: 20000 M⁻¹ s⁻¹

LIGHTt66-FLAG mutant G119E (ligand)
up-regulation of ICAM expression by NHDF cells (fold induction, flow cytometry) [2]: < 1.5 fold | Kd [4]: 114 nM | koff [4]: 0.002 s⁻¹ | kon [4]: 18000 M⁻¹ s⁻¹ | fold lower affinity than LIGHT t66 [5]: 30 fold

LIGHTt66-FLAG mutant L120Q (ligand)
50% cell death of HT29 cells (MTT, 72 h, with IFNγ) [2]: 10 µM | EC50 (read off the curve) [6]: 0.08 nM

LTβR:Fc (as printed in Examples 1 to 4; human or mouse not said) (Fc fusion)
IC50 (read off the curve) [7]: 10 µg/mL

LIGHTt66-FLAG mutant Y173F (ligand)
50% cell death of HT29 cells (MTT, 72 h, with IFNγ) [2]: 0.001 µM | up-regulation of ICAM expression by NHDF cells (fold induction, flow cytometry) [2]: 2.5 fold | Kd (human LTβR:Fc (human) [3]): 31 nM | koff (human LTβR:Fc (human) [3]): 0.0011 s⁻¹ | kon (human LTβR:Fc (human) [3]): 37000 M⁻¹ s⁻¹ | Kd [4]: 173 nM | koff [4]: 0.0033 s⁻¹ | kon [4]: 19000 M⁻¹ s⁻¹ | Kd [5]: 180 nM | fold lower affinity than LIGHT t66 [5]: > 40 fold

LIGHTt66-FLAG, recombinant soluble homotrimeric LIGHT lacking the N-terminal 66 amino acids (ligand)
Kd (human LTβR:Fc (human) [8]): 4.5 nM | koff (human LTβR:Fc (human) [8]): 0.00012 s⁻¹ | kon (human LTβR:Fc (human) [8]): 27000 M⁻¹ s⁻¹ | Kd [9]: 3.9 nM | koff [9]: 4.8e-05 s⁻¹ | kon [9]: 12000 M⁻¹ s⁻¹ | EC50 (read off the curve) (human LTβR:Fc (human) [10]): 0.3 nM | fold lower affinity (against the human receptors) [11]: 10 fold | fold lower affinity (against the human receptors) [12]: 10 fold | IC50 for inhibition of pp28 expression (HCMV infected NHDF, western blot) [2]: 0.4 nM | concentration that completely inhibits the cytopathic effect of HCMV [2]: 100 pM | dose for 50% cytotoxicity to HT29 cells (MTT, with IFNγ) [2]: 10 to 100 pM | up-regulation of ICAM expression by NHDF cells (fold induction, flow cytometry) [2]: 4 fold

B1
IC50 (read off the curve) [13]: ~20 µg/mL

B2
EC50 [14]: 20 nM | binding result [15]: no binding | binding result (LTαTyr108Phe): no binding

B3
binding result [16]: no binding

B4
IC50 for inhibition of pp28 expression (HCMV infected NHDF, western blot) [17]: 1 nM

B5
IC50 (read off the curve) [18]: ~50 nM | IC50 (read off the curve) [19]: ~30 nM

B6
IC50 (read off the curve) [13]: ~6 µg/mL
